For the data set, the target named is MYB96 (Arabidopsis thaliana) (UniProt Q24JK1). The data set can be described thus: cell_activity. The settings on record: GUS reporter activation in Arabidopsis protoplasts.

Some results are limits rather than exact numbers.

The values below come from US8716556.

UniProt Q24JK1, sequence (Q24JK1 whole entry): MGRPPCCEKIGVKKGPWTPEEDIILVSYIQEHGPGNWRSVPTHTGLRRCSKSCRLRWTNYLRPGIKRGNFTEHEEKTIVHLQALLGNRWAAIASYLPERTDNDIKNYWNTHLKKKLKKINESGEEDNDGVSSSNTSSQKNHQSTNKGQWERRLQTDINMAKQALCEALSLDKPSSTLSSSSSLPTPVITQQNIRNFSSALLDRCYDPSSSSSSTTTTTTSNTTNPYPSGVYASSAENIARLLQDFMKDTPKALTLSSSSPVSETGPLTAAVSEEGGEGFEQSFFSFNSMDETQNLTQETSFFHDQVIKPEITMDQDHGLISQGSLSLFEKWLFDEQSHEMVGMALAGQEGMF

In the case of KCS1-BS in pKCS-P reporter, the activity is above 6 fold.
